In the nanobody polyreactivity screen of Harvey et al. (2022):

Assay: yeast display, Sf9 membrane polyspecificity reagent, FACS + sequencing; frameworks hold sequencing errors
Summary of the method: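 In a synthetic yeast display library (Saccharomyces cerevisiae BJ5465), nanobody expression was induced with galactose for 36–48 hours. FACS gates were set low and high (top ~1%) using anti-HA fluorescence for expression and streptavidin fluorescence for binding of the Sf9 membrane reagent. Each polyreactivity label is drawn from the gate of origin.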

| Sequence | polyreactivity (PSR sort gate) |
| --- | --- |
| QVQLVESGGGLVQAGGSLRLSCAASGRTFYYYTMGWYRQAPGKERELVAAITHGGSTYYADSVKGRFTISRDNAKNTVYLQMNSLKPEDTAVYYCNAVYHYPYEYWGQGTQVTVSS | high polyreactivity |
| QVQLVESGGGLVQAGGSLRLSCAASGRTFYYNAMGWYRQAPGKERELVAAISYRGGSTYYADSVKGRFTISRDNAKNTVYLQMNSLKPEDTAVYYCAKYPHPLKYPGYPSEFDYWGQGTQVTVSS | low polyreactivity |
| QVQLVESGGGLVQAGGSLRLSCAASGFTFVWYAMGWYRQAPGKERELVAAISRRGTRTYYADSVKGRFTISRDNAKNTVYLQMNSLKPEDTAVYYCAASPWGGYGYWGQGTQVTLSS | high polyreactivity |
| QVQHVESGGGLVQAGGSLRLSCAASGRNFTYYAMGWYRQAPGKERELVAAISGGGITNYADSVKGRFTISRDNAKNTVYLQMNSLKPEDTAVYYCAADQRYRRAFRSRYGSWGQGTQVTVSS | low polyreactivity |
| QVQLVESGGGLVQAGGSLRLSCAASGFTFRYYAMGWYRQAPGKERELVAAISSGGRTNYADSVKGRFTISRDNAKNTVYLQMNSLKPEDTAVYYCAKAQYYYIGDYDYWGQGTQVTVSS | high polyreactivity |
| QVQLVESGGGLVQAGGSLRLSCAASGFTFNDNAMGWYRQAPGKERELVAAITYGGSTYYADSVKGRFTISRDNAKNTVYLQMNSLKPEDTAVYYCARDLSAGPGRDYWGQGTQVTVSS | low polyreactivity |
| QVQLVESGGGLVQAGGSLRLSCAASGIIFSGYAMGWYRQAPGKERELVASIRSGSNTYYADSVKGRFTISRDNAKNTVYLQMNSLKPEDTAVYYCAARVVPATFRFIRYPHPYYYWGQGTQVTVSS | low polyreactivity |
| QVQLVESGGGLVQAGGSLRLSCAASGRTFLTNAMGWYRQAPGKERELVAAITSSGGSTYYADSVKGRFTISRDNAKNTVYLLMNSLKPEDTAVYYCNKKSALYRRYDYWGQGTQVTVSS | low polyreactivity |
| QVQLVESGGGLVQAGGSLRLSCAASGYTFGTYAMGWYRQAPGKERELVAAITWRGGSTYYADSVKGRFTISRDNAKYTFYLQMNSLIPEDTAVYYCNADIKQRSDRYDYWGQGTQVTVSS | high polyreactivity |
| QVQLVESGGGLVQAGGSLRLSCAASGRTFGIYAMGRYRQAPGKERELVAAITGRGGSTHYADSVKGRFTISRDNAKNTVYLQMNSLKPEDTAVYYCAADYRYNRGITSNKDYDYWGQGTQVTVSS | low polyreactivity |
| QVQLVESGGGLVQAGGSLRLSCAASGRIFQRYMGWYRQAPGKERELVAAISRRGGSTYYADSVKARFTISRDNAKNTVYLQMNSLKPEDTAVYYWNAVNVLAPSRGRRYDYWGQGTQVTVSS | high polyreactivity |
| QVQLVESGGGLVQAGGSLRLICAASGFTFYYYAMGWYRQAPGKEWELVAAISRNGVSTYYADSVKGRFTISRDNAKNTVYLQMNSLKPEDTAVYYCASGYGSLHVNYLGQGTQVTVSS | low polyreactivity |
| QVQLVESGGGLVQAGGSLRLSCAASGSISDIYTMGWYRQAPGKERELVAAITGSAGSTYADSVKGRFTLSRDNAKNTVYLQMNSLKPEDTAVYYCNAQPGDDVKVKLDYWGQGTQVTVSS | low polyreactivity |
| QVQLVESGGGLVQAGGSLRLSCAASRITFYPNDMGWDRQAPGKERELVAAITTNDGDTYYADSVKGRFTISRDNAKNTVYLQMISLQPEDTAVYYCAADSGSTSEYEYLGQGTQVTVSS | low polyreactivity |
| QVQLVESGGGLVQAGGSLRLSCAASGNTFSQYAMGWSRQAPGKERELVATISKSSGSTSYADSVKGRFTISRDNAKNTVYLQMNSLKPEDTAVYYCNADSSDVYHHLGVLFFSTWYDYWGQGTQVTVSS | low polyreactivity |
| QVQLVESGGGLVQAGGSLRLSCAASGSTFLPNAMGWYRQAPGKERELVAAISYRGGGTFYADSVKGRFTISRDNAKNTVYLQMNSLKPEDTAVYYCADDWSWFDNFDYWGQGTQVTVSS | low polyreactivity |
| QVQLVESGGGLVQAGGSLRLSCAASGSTFYYYAMGWYRQAPGKERELVAAITYSGGGTYYADSVKGRFTISRDNAKNTFYLQMNSLKPEDTAVYYCAKTIAVNTWYYYWGQGTQVTVSS | low polyreactivity |
| QVQLVESGGGLVQAGGSLRLSCAASGILLFNAMGWYRQAHGKERELVAAINSGGSTNYADSVKGRFPISRDNAKNTGYLQMNSLKPEDTAVYYCAKDTPFTLRVWAEGGMDYWGQGTQVTVSS | low polyreactivity |
| QVQLVESGGGLVQAGGSLRLTCAASAFTFKLYVMGWYRHATGKERQFDAGITKRGGRTYYADSVKGRFTISRDNAKNTFYLQMNSLKPEDTAVYYCSAGTRIYNSCIRFDYWGQGTQVTVSS | high polyreactivity |
| QVQLVESGGGLVQAGGSLRLSCAASGSTFYRNAMGWYRQAPGKERELVAAISSTGGSTYYADSVKGRFTISRDNAKNTVYLQMNSLKPEDTAVYYCARDYSWLTRGSDYDYWGQGTQVTVSS | low polyreactivity |
| KCQLVDSGGGLVQAGGSLRLSCAASGSIFYVKAMGWYRQAPGKEREFVADITYTGGSTYYADSVNGRFTISRDNAKNTVYLQMNSLKPEDTAVYYCAADLYTTYVAIYDYWGQGTQVTVSS | low polyreactivity |
| QVQLVESGGGLVQAGGSLRLSCAASGSTFFVYAMGWYRQPPGKERELVADINWSSGITYYADSVKGRFTISRDNAKNNVYLQMNSLKREDTAVYYCKKDERYVTWSYFPNRYNYWGQGTQVTVSS | low polyreactivity |

| Sequence | polyreactivity (PSR sort gate) |
| --- | --- |
| QVHLVESVGGLVQAGGSLRLSSPASGGTLWVNTMGWYRQAPGKERELVAAISRRGGSTYYADSVKGRFTISRDNAKNTVYLQMNSRKPEDTAVYYCNARENAVSLRDYWGQGTQVTVSS | high polyreactivity |
| QVQLVESGGGLVQAGGSLRLSCAASGRTFSRNAMGWYRQAPGKERELVAGISWRGTSTYYADSVKGRFTISRDNAKNTVYLQMNSLKPEYTAVYYCNRVYEYWSEYDYWGQGTQVTVSS | high polyreactivity |
| QVQLVESGGGLVQAGGSLRLSCAASGSIFGVYDMGWYRQAPGKEREVVAVINSNGGSTYYADSVKGRFTISRDNAKNTVYLQMNSLKPEDTAVYYCAADYQSYVYIGYGYWGQGTQVTVSS | low polyreactivity |
| QVQLVESGGGLVQAGGSLRLSCAASGFIIARNAMGWYRQAPGKERELVAAISASGGRTYYADSVKGRFTISRDNAKNTVYLQMNSLKPEDTAVYYCAARRDGRSGSYNYWGQGTQVTVSS | high polyreactivity |
| QVQLVESGGGLVQAGGSLRLSCAASGLIFRPYAMGWYRQAPGKERELFAGISFRGDSTYYADSVKGRFTISRDNAKNTVYLQMNCLKPEDTAVYYCDADVYIYWPPDKLLGYDYWGQGSQVTVSS | low polyreactivity |
| QVQLVESGVGLVQAGGSLRLSCAASGFIFHRNAMGWYRQAPGKERELVASITKRGGNTYYADSVKGRFTISRDNAKNTVYLQMNSLKPEDTAVYYCATHLWGWDWKRDYWGQGTQVTVSS | high polyreactivity |
| QVQLVESGGGLVQAGGSLRLSCAASGRTFWNYAMGWYRQAPGKERELVAVIRFSDGSTYYADSVKGRFTISRDNAKNTVYLQMKSLKPEDTAVYYCGAKGQRRWGSGFDYWGQGTQVTVSS | low polyreactivity |
| QVQLVESGGGLVQAGGSLRLSCAASGFTFGYYTMGWYRQAPGKERELVAAISWRGGRTYYADSVKGRFTISRDNAKNTVYLQMNSLKPEDTAVYYCAAEYTYGWTYRPFDYWGQGTQVTVSS | high polyreactivity |
| QVKLVESGGGLVQAGGSLRLSCAASGSIFPHYAMGWYRQAPGKERELVAAISRGGSTNYADSVKGRFTISRDNAKNTVYLQMNSLKPEDTAVYYCNALRYYSRFLYAVAYRYDYWGQGSQVTVSS | high polyreactivity |
| QVQLVESGGGLVQAGGSRRLSCAAAGISFGWYSMGWYRQAPGKERELVATISQSGTSTYYADSVKGRFTISRDNAKNTVYLQMNSLKPEDTAVYYCAADYIRGYYYRVPLEVDYWGQGNQVTVSS | low polyreactivity |
| QVQLVESGGGLVQAGGSLRLISAASGNIVYFNAMGWYRQAPGKERELVAAISRAGSTYYADSVKGRFTISRDNAKNTVYLQMNSLKQEDTAVYYCAATTGRPDNYYYWGQGTQVTVSS | high polyreactivity |
| QVQLVESGGGLVQAGGSLRLSCAASGRIFADYAMGWYRQAPGKERELVAAISWRGGSRYYADSVKGRFTSSRDNAKNTVYLQMNSLKPEDTAVYYCNKASPADYDYWGQGTQVTVSS | low polyreactivity |
| QVHHVDSGGGIVKAGGSLRLSCPASGFIFPRNVLGWSRQEPGKERELVAAISRSGGSTYYADSVKGRFTISRDNAKNTVYLPMNSLKPEDTAVYYGGKRTFYNGEFWGQGTQVTVSS | low polyreactivity |
| QVQLVESGGGLVQAGGSLRLSCAASGRIFFGYAMGWYRPAPGKEREFVAAINWIGGRTYYAASVKGRFTISRDNAKNTVYLQMNSLKPEDTAVYYCAKEVSPYWTFDYWGQGTQVTVSS | low polyreactivity |
| QVQLVESGGGLVQAGGSLRLSCAASGSIFRSYAMGWYRQAPGKERELVASISRRGGSTYYADSVKGRFTISRDNAKNTVYFQMNSLKPEDTAVYYCAAVRYNSRVSTTPSEMYYWGQGTLVTVSS | low polyreactivity |
| QVQLVESGGGLVQAGGSLRLSCAASGSIFGINAMGWYRQAPGKERELVAAISGSTSRTYYADSVKGRFTISRDNAKNTVYLQMNSLKPEDTAVYYCAVVGLRSVTRRSYYWGQGTQVTVSS | high polyreactivity |
| QVQLVESGGGLVQAGGSLRLSCAASGRIYGVYALGWYRQAPGKERELVAAITSSGGSTYYADSVKGRFTISRDNAKNTVYLQMNSLKPEDTAVYYCAADNTFRDDYFLYYLFNYNYWGQGTQVTVSS | low polyreactivity |
| QVQLVESGGGLVQAGGSLRLSCAASGRTFNYYAMGWYRQAPGKERELVAAISWGGGRTYYADSVKGRFTISRDNAKNTVYFQMNSLKPEDTAVFDCAARYLQLGLAYYYWGQGTQVTVSS | high polyreactivity |
| QVQLEDSGGGLVQAGGSLRLSCAASGIIFYSYAMGWYRQAPVKERELVATISFSGDNTYYADSVKGRFTISRDNAKNTVYLQMNSLKPEDTAVYYCAAASTYGGYYYSVSFEYWGQGTQVTVSS | low polyreactivity |
| QVQLVESGGGLLQAGGSLRLSCAASGSIFERNAIGWYRQAPGKERELVAVITRSGGSTYYADSVKGRFTISRDNAKNTVYLQMNSLKREDTAVYYCNARTAYFYGLDYWGQGTQVTVSS | high polyreactivity |
| QVQLVESGGGLVQARVSLRLSCAASGSIFNGYAMRWYRQAPGKESEFVAAISASGGGTYYADSVKGRFTISRDNAKNTVYLQMNSLKPEDTAVYYCNARYHPYYWGYRYDYWGQGTQVTVSS | low polyreactivity |
